Data on 1 substance can be found in PMC5183740.

This assay has as its target SA-M2e (streptavidin core fused to three consecutive copies of M2e of A/PARIS/2590/2009 (H1N1)) (Streptomyces avidinii | influenza A virus A/PARIS/2590/2009 (H1N1)). The assay is described as follows: SDS-PAGE of unheated samples.

What is called stoichiometry N is the number of molecules, sites or subunits per partner or assembly.

Regarding “SA-M2e (streptavidin core fused to three consecutive copies of M2e of A/PARIS/2590/2009 (H1N1))”, the stoichiometry N was found to be 4.
